# Data taken from patent US20250042994A1 (HAINAN SIMCERE ZAIMING PHARMACEUTICAL, published 2025).
# T1: human CD19 on Raji cells (human, UniProt P15391 20-556)
# T1 construct: whole, on cells
# T1 sequence (looked up): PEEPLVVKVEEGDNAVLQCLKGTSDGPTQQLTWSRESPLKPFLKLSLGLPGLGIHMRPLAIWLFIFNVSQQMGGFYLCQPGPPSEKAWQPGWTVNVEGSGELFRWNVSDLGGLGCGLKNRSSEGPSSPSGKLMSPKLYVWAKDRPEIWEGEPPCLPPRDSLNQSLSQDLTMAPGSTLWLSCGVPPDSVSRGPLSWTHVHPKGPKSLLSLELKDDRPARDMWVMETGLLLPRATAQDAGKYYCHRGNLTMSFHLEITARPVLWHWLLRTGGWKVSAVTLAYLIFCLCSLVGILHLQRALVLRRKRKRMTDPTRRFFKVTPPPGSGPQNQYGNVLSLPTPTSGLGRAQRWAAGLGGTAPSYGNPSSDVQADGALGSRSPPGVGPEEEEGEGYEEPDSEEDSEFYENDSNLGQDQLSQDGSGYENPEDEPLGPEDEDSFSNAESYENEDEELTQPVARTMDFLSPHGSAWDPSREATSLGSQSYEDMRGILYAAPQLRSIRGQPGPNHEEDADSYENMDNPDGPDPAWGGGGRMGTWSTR
# T2: murine CD19 protein (murine, UniProt P25918 17-287, limits assumed)
# T2 construct: bought protein; also called commercial murine CD19
# T2 sequence (looked up): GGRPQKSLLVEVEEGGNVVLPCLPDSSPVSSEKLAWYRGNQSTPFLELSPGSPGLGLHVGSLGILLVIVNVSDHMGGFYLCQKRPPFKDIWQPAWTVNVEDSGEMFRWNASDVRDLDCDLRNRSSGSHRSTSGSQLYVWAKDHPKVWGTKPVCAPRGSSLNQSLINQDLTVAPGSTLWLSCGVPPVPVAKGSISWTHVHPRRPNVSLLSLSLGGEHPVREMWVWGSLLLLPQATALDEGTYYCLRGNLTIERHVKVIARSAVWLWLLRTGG
# T3: Human CD19-his protein (human, UniProt P15391 20-291)
# T3 construct: bought protein; also called human CD19 protein; recombinant human CD19-His; not shown: His tag
# T3 sequence (looked up): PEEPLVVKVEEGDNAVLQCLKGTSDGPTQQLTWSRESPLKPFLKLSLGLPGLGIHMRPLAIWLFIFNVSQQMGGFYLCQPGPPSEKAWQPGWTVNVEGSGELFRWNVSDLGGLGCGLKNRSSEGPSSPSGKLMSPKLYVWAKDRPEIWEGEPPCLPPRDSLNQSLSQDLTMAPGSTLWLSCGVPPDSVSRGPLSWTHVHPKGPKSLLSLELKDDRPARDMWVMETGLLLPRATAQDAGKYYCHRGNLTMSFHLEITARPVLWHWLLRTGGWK
# T4: human CD19 on CHO-K1-human CD19 cells (human, UniProt P15391 20-556)
# T4 construct: whole, on cells; also called CHO-K1-human CD19-2C8
# T4 sequence (looked up): T1 sequence (looked up)
# T5: cynomolgus monkey CD19 on peripheral blood B cells (cynomolgus monkey (Macaca fascicularis), UniProt A0A2K5W8L9 20-557)
# T5 construct: whole, on cells; also called cynomolgus monkey B cells
# T5 sequence: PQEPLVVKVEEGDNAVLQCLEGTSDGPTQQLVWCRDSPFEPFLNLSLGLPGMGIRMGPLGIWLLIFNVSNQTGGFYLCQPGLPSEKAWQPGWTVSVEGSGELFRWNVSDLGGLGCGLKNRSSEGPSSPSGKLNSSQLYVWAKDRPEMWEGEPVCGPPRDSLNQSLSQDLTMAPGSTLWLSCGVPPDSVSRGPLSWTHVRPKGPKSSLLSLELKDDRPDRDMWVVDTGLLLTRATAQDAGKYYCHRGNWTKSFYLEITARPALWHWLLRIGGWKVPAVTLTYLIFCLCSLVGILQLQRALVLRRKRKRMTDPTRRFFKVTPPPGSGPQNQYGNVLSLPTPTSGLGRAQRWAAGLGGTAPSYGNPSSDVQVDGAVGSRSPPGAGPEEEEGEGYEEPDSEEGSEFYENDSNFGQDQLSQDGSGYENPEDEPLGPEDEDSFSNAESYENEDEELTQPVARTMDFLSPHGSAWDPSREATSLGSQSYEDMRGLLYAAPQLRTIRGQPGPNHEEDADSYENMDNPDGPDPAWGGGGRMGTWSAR
# B1: F4.191.1 (antibody, human IgG1, V domains shown)
# VH: QVQLQQPGAELVRPGASVKLSCKASGYTFTSYWINWVKQRPGQGLEWIGNIHPSDSYTNYNQKFKDKATLTVDKSSSTAYMQFSSPTSEDSAVYYCTREDYYYGSNYDAMDYWGQGTSVTVSS
# VL: DIVMTQSHKFMSTSVGDRVNITCKASQDVGSSVAWYQQKPGQSPKLLIYWASTRHAGVPDRFTGSGSGADFTLTISNVQSEDLADYFCQQYSTYPLTFGAGTKLELK
# notes: human-murine chimeric antibody, human IgG1
# B2: F4.96.6 (antibody, human IgG1, V domains shown)
# VH: EIQLQQSGPELVKPGASVKVSCKASGYAFSAYNIYWVKQSHGKSLEWIGYIDPYNSGTTYNQKFRGKATLTVDKSSNTAYMHLSSLTSEDSAVYYCTRDGDAMDYWGQGTSVTVSS
# VL: EILLTQSPAIIAASPGEKVTITCSASSGVIYMNWYQQKPGSSPKIWIYDVSTLASGVPARFSGSGSGTSFSFTINSMEAEDVATYYCQQRSSYPYTFGGGTKLEIK
# notes: as for B1
# B3: F4.82.11 (antibody, human IgG1, V domains shown)
# VH: QVTLKESGPGILQASQTLSLTCSFSGFSLSTFGIGVGWVRQPSGKGLEWLAHIWWNDNKFFNTTLKNRLTLSKDPSNNQVFLKIASVDTADTATYYCARSRSALITTGLYAMDYWGQGTSVTVSS
# VL: DIQMTQTPSSLSASLGDRVTISCRSSQDISNYVNWYQQKPDGTVKVLINYTSRLHSGVPSRFSGSGSGTDYSLTISNLEQEDIASYFCQQGFTLPYTFGGGTKLEIK
# notes: as for B1
# B4: F4.107.12 (antibody, human IgG1, V domains shown)
# VH: EVQLQQSGPELVKPGASVKMSCKASGYTFTSYVLHWVRQKPGQGLEWIGYFNPYNDGTEYNEKFKGKAILTSDKSSSTAYMELNSLTSEDSAVYYCVGGTYYYGSSYPFAYWGQGTLVTVST
# VL: DVVMTQISLSLPVSLGDQASISCRSSQSLIHSNGNTYLQWYLQKPGQSPKLLIYKVSNRLSGVPDRFSGSGSGTDFTLKISRVEAEDLGVYFCSQSTHVPYTFGGGTKLEIK
# notes: as for B1
# B5: F4.152.7 (antibody, human IgG1, V domains shown)
# VH: QVQLQQPGAELVKPGASVKLSCKASGYTFTSYWMHWVKQRPGQGLEWIGEIDPSDSYTNYNQKFKGKATLTADKSSSTAYMQLSGLTSEDSAVYHCARGGDYDGYYVMDYWGQGTSVTVSS
# VL: EIVLTQSPTTMAASPGEKITITCSASSSISSNYLHWYQQKPGFSPKLLIYRTSNLASGVPARFSGSGSGTSYSLTIGTMEADDVATYYCQQGSYIPRIFTFGSGTKLEIK
# notes: as for B1
# B6: F3.23.10 (antibody, human IgG1, V domains shown)
# VH: EFQLQQSGPELVKPGASVKISCKASDYSFTDYNMNWVKQSNGASLEWIGIINPNFGSTSYNQKFKGKATLTVDQSSSTAFMQLNSLTSEDSAVYYCARSEYYGSSGFAYWGQGTLVTVSA
# VL: DVVVTQTPLSLPVSFGDQVSISCRSSQSLVNSYGNTYLSWYLHKPGQSPQLLIYGISNRFSGVPDRFSGSGSGTDFTLKITTIKPEDLGMYYCLQGTHQPWTFGGGTKLEIK
# notes: as for B1
# B7: F5.11.2 (antibody, human IgG1, V domains shown)
# VH: EVQLVESGGDLVKPGGSLKLSCAASGFTFSSYGMSWVRQTPDKRLEWVATISHGGSYTHYPDSVKGRFTISRDNAKNTLYLQMNSLKSEDTAMYYCVRLPITTVEAPYFFDYWGQGTTLTVSS
# VL: DIQMTQTTSSLSASLGDRVTISCRASQDIRNYLNWYQQKPDGTVKLLIYYTSILHSGVPSRFSGSGSGTDYSLTINNLEQEDVATYFCQQGNTLYTFGGGTEVELR
# notes: as for B1
# Molecular target: T1, human CD19 on Raji cells
# Assay: FACS on Raji cells
Binder,EC50,Maximum mean fluorescence intensity
B1,1.89 nM,32300
B2,0.74 nM,25700
B3,0.85 nM,16600
B4,0.6 nM,26700
B5,0.76 nM,26000

# Molecular target: T2, murine CD19 protein
# Assay: ELISA, coated murine CD19
# Description: (§1) Human CD19-his protein (purchased from ACROBiosystems, catalog number: CD9-H52H2) was diluted with PBS to a final concentration of 4 μg/mL, and then added to a 96-well ELISA plate at 100 μl/well. The plate was sealed with a plastic film and incubated overnight at 4° C., the plate was washed 2 times with PBS the next day, and then a blocking solution [PBS+2% (w/w) BSA] was added for blocking at room temperature for 2 h. The blocking solution was poured off, and 100 nM gradiently diluted CD19 chimeric antibody or control antibody was added at 50 μl/well. After incubation at 37° C. for 2 h, the plate was washed 3 times with PBS. […] TMB substrate was added at 50 μl/well, and incubated at room temperature for 10 min, and then a stop solution (1.0 N HCl) was added at 50 μl/well. The OD450 nm values were read by an ELISA microplate reader (Multimode Plate Reader, EnSight, purchased from Perkin Elmer).
# In order to detect the species cross-binding activity of the chimeric antibodies, an ELISA plate was coated with commercial murine CD19 (ACROBiosystems, catalog number: 50510-M08H) and monkey CD19 (ACROBiosystems, catalog number: 90051-C08H), respectively, and the ELISA detection was performed according to the method in example 5.1.
row,Binder,binding result
1,B6,no binding
2,B7,no binding

# Molecular target: T3, Human CD19-his protein
# Assay: ELISA, antibody at 10 nM
# Description: as §1
row,Binder,OD450
1,B6,1.85
2,B7,2.68

# Molecular target: T3, Human CD19-his protein
# Assay: ELISA, antibody at 100 nM
# Description: as §1
row,Binder,OD450
1,B6,2.14
2,B7,3.01

# Molecular target: T3, Human CD19-his protein
# Assay: ELISA, antibody at 0.01 nM
# Description: as §1
row,Binder,OD450
1,B6,0.09
2,B7,0.14

# Molecular target: T3, Human CD19-his protein
# Assay: ELISA, antibody at 0.10 nM
# Description: as §1
row,Binder,OD450
1,B6,0.39
2,B7,0.56

# Molecular target: T3, Human CD19-his protein
# Assay: ELISA, antibody at 1.00 nM
# Description: as §1
row,Binder,OD450
1,B6,1.27
2,B7,1.82

# Molecular target: T3, Human CD19-his protein
# Assay: ELISA, antibody at 0.001 nM
# Description: as §1
row,Binder,OD450
1,B6,0.06
2,B7,0.07

# Molecular target: T3, Human CD19-his protein
# Assay: ELISA, antibody at 0.0001 nM
# Description: as §1
row,Binder,OD450
1,B6,0.05
2,B7,0.06

# Molecular target: T4, human CD19 on CHO-K1-human CD19 cells
# Assay: FACS on CHO-K1-human CD19 cells
Binder,EC50,Maximum mean fluorescence intensity
B1,0.34 nM,26500
B2,1.16 nM,52000
B3,0.32 nM,26000
B4,0.77 nM,59900
B5,0.78 nM,58900

# Molecular target: T6, monkey CD19 on HEK293T-monkey CD19 cells (monkey)
# T6 construct: whole, on cells
# Assay: FACS on HEK293T-monkey CD19 cells
# Summary of the method: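 Antibody binding was read as MFI by flow cytometry and EC50 was taken from curve fitting. Before that, cells at 2×10⁶ cells/ml in PBS with 2% (w/w) BSA were exposed to samples for 2 h on ice and washed. Parental HEK293T cells were tested the same way.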
Binder,EC50,Maximum mean fluorescence intensity
B1,1.14 nM,59600
B2,,73
B3,1.18 nM,66600
B4,1.24 nM,69500
B5,,58

# Molecular target: T5, cynomolgus monkey CD19 on peripheral …
# Assay: FACS, cynomolgus PBMC, CD20+ B cells
Binder,Proportion of chimeric antibody positive cells to B cells (%) at 1 nM,Proportion of chimeric antibody positive cells to B cells (%) at 10 nM,Proportion of chimeric antibody positive cells to B cells (%) at 100 nM
B1,3%,15%,50%
B2,1%,2%,1%
B3,97%,98%,99%
B4,20%,35%,67%
B5,2%,2%,3%
